Assay results taken from publication PMC6783348.

B1: A3 (structured_DNA)
DNA: ATCCAGAGTGACGCAGCAACAGAGGTGTAGAAGTACACGTGAACAAGCTTGAAATTGTCTCTGACAGAGGTGGACACGGTGGCTTAGT
B2: A8 (structured_DNA)
DNA: ATCCAGAGTGACGCAGCAGCTCGATCGTATAGCCGTGACGCAGCTTGAAATGGGATCGCGTCCACAGTTTTGGACACGGTGGCTTAGT

Molecular target: CD8a extracellular domain (Homo sapiens, UniProt P01732 22-182)
Test: BLI

CD8a extracellular domain, sequence (P01732 22-182): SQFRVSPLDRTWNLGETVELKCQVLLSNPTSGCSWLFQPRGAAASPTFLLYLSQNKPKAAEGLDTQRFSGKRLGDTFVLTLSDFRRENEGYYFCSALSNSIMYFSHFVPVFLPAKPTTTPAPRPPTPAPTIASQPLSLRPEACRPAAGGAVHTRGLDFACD

Row | Binder | Kd [nM]
1 | B1 | 14.7 ± 0.1
2 | B2 | 5.59 ± 0.11
